35 molecules from patent publication US11155602B2, “Polypeptides targeting HIV fusion” (priority 2015, dated 2021) can be followed below.

Substitutions are numbered along the chain they refer to.

This experiment deals with NL-Rluc virus. In words: Combinectin potency assay: antiviral EC50, NL-Rluc virus in MT-2 cells, luciferase readout. The format is cell-based, HIV-1. The conditions noted are these: Anti-N17 Adnectin, Table 3. A digest of the protocol:
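Peptides, serially diluted threefold over 11 points in triplicate, were exposed for 4–5 days to MT-2 cells preinfected 1 h with NL-Rluc virus (MOI 0.01). Replication read out as Renilla luciferase signal, with EC50 derived against untreated infected controls.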

The EC50 is the concentration needed to bring the measured effect to its halfway point.

B1: 270 (protein)
chain: MGHHHHHHGGSVSDVPRDLEVVAATPTSLLISWEYKVAPYRYYRITYGETGGNSPVQEFTVPSVLSTATISGLKPGVDYTITVYAVTYGDDSAPISINYRTEID
modifications: Adnectin
For the molecule B1, the EC50 was over 1000 nM.

B2: 274 (protein)
chain: B1 chain with K36R, A38H
modifications: Adnectin
As for B2, the EC50 was 115 nM.

B3: 288 (protein)
chain: B1 chain with P26T, A38D, P39Y, Y40H
modifications: Adnectin
For the molecule B3, the EC50 was over 1000 nM.

B4: 292 (protein)
chain: B1 chain with A38H, S71H
modifications: Adnectin
B4: the EC50 worked out at 52 nM.

B5: 282 (protein)
chain: B1 chain with K36S, A38H
modifications: Adnectin
As to B5, the EC50 was 56 nM.

B6: 285 (protein)
chain: B1 chain with A38H, T67S, I70L, S71R
modifications: Adnectin
With B6, the EC50 is 397 nM.

B7: 286 (protein)
chain: B1 chain with P39A, Y40W
modifications: Adnectin
Consider B7, for which the EC50 was over 1000 nM.

B8: 293 (protein)
chain: B1 chain with A38H, I70L, S71R
modifications: Adnectin
Regarding B8, the EC50 is over 1000 nM.

B9: 280 (protein)
chain: B1 chain with A38D, P39Y, Y40G
modifications: Adnectin
Turning to B9, the concentration giving a half-maximal response (EC50) was over 1000 nM.

B10: 291 (protein)
chain: B1 chain with A38H, Y88G
modifications: Adnectin
On to B10, for which the EC50 is over 1000 nM.

B11: 289 (protein)
chain: B1 chain with K36G, A38H
modifications: Adnectin
As to B11, the EC50 is over 1000 nM.

B12: 297 (protein)
chain: B1 chain with A38D, Y40W
modifications: Adnectin
As for B12, the EC50 turned out to be 30 nM.

B13: 298 (protein)
chain: B1 chain with A38D, P39Y, Y40Q
modifications: Adnectin
Regarding B13, the EC50 is over 1000 nM.

B14: 276 (protein)
chain: B1 chain with A38H, S71R
modifications: Adnectin
For the molecule B14, the EC50 was determined as 16 nM.

B15: 294 (protein)
chain: B1 chain with A38H, T67S
modifications: Adnectin
As for B15, the EC50 stood at 101 nM.

B16: 271 (protein)
chain: B1 chain with A38D, P39G
modifications: Adnectin
For B16, the EC50 was over 1000 nM.

B17: 283 (protein)
chain: B1 chain with A38H, Y88D
modifications: Adnectin
In the case of B17, the EC50 is over 1000 nM.

B18: 275 (protein)
chain: B1 chain with A38H, E58S, D90A
modifications: Adnectin
For B18, the EC50 is 180 nM.

B19: 279 (protein)
chain: B1 chain with A38D, P39H, Y40Q
modifications: Adnectin
In the case of B19, the EC50 is over 1000 nM.

B20: 287 (protein)
chain: B1 chain with P39T, Y40W
modifications: Adnectin
For the molecule B20, the EC50 was over 1000 nM.

B21: 295 (protein)
chain: B1 chain with P39A
modifications: Adnectin
Consider B21, for which the EC50 was over 1000 nM.

B22: 284 (protein)
chain: B1 chain with A38H, Y88S
modifications: Adnectin
For B22, the EC50 was over 1000 nM.

B23: 296 (protein)
chain: B1 chain with P39T
modifications: Adnectin
On to B23, for which the EC50 was over 1000 nM.

B24: 277 (protein)
chain: B1 chain with A38H, E58D
modifications: Adnectin
Consider B24, for which the concentration for a half-maximal effect (EC50) was over 1000 nM.

B25: 281 (protein)
chain: B1 chain with E34K, K36G, A38H
modifications: Adnectin
Regarding B25, the EC50 was over 1000 nM.

B26: 278 (protein)
chain: B1 chain with P39R, Y40W
modifications: Adnectin
For the molecule B26, the EC50 is over 1000 nM.

B27: 273 (protein)
chain: B1 chain with K36E, A38H
modifications: Adnectin
As for B27, the EC50 is over 1000 nM.

B28: 130 (protein)
chain: B1 chain with K36N, A38H, P39Y, Y40D, Y88D, D90V, D91H, A93S
modifications: Adnectin
In the case of B28, the EC50 turned out to be 42 nM.

B29: 299 (protein)
chain: B1 chain with E34K, A38H
modifications: Adnectin
Take B29: the EC50 was over 1000 nM.

B30: 272 (protein)
chain: B1 chain with A38D, P39T
modifications: Adnectin
B30: the EC50 is over 1000 nM.

B31: 131 (protein)
chain: B1 chain with A38H, D91L
modifications: Adnectin
Regarding B31, the EC50 amounted to 5 nM.

B32: 301 (protein)
chain: MGHHHHHHGGSVSDVPRDLEVVAATPTSLLISWEYKVHPYRYYRITYGETGGNSPVQEFTVPSVLSTATISGLKPGVDYTITVYAVTHGDDFAPISINYRTEMLI
modifications: Adnectin
In the case of B32, the EC50 is over 1000 nM.

B33: 129 (protein)
chain: MGVSDVPRDLEVVAATPTSLLISWEYKVHPYRYYRITYGETGGNSPVQEFTVPSVLSSAEISGLKPGVDYTITVYAVTYGIDSPPISINYRTEIDKPSQHHHHHH
modifications: Adnectin
Turning to B33, the EC50 turned out to be 11 nM.

B34: 115 (protein)
chain: B33 chain with H29N, P30N, S58T, E60T, I81V, D82H, P84S
modifications: Adnectin
As to B34, the EC50 worked out at 130 nM.

B35: 132 (protein)
chain: MGHHHHHHGGSVSDVPRDLEVVAATPTSLLISWDAPAVTVEEYYIGYYVEFEPSSYQWFTVPGSKSTATISGLKPGVEYSIYVNAVTGMGMQPEMSLPISINYRTEGS
modifications: Adnectin
For the molecule B35, the EC50 came out at 5 nM.
